Data as given in US20230174663A1 (MEDABOME, published 2023).
Several values for one entry are separate records, joined by “and”; a condition that tells them apart may be missing. Equal values may be shown once.

Tests used:
[1] = biological target: T1, human TfR1-GFP fusion protein (rTfR1-GFP) expressed on the membrane of CHO-DG44 cells (human, UniProt P02786 1-760); assay: FACS titration on CHO/rTfR1-GFP cells
T1 construct: whole, on cells; also called CHO/rTfR1-GFP cells; CHO/rTfR-GFP cells; not shown: GFP (also called EGFP) fused in frame to the C-terminus
T1 sequence (P02786 whole entry, the tested form may be a part): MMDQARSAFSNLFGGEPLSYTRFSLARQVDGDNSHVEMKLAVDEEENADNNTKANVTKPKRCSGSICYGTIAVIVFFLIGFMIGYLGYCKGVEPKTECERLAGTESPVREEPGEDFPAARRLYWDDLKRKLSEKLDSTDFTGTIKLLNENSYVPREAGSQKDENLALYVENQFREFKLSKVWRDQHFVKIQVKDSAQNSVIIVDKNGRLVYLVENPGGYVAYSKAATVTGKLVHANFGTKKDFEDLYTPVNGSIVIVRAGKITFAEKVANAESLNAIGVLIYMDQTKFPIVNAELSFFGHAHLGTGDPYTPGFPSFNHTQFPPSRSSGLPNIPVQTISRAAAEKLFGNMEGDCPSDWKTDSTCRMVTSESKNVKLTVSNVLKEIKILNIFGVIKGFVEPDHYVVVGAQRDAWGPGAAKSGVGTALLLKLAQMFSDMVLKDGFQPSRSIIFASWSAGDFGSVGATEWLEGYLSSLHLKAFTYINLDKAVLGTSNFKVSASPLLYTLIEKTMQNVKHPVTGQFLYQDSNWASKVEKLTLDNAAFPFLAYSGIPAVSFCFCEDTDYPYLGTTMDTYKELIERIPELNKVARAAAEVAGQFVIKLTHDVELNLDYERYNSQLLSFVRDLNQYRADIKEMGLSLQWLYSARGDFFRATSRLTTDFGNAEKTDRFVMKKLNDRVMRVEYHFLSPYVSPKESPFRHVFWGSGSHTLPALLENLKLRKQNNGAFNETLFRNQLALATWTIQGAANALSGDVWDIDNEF
Description: The cDNA was in-frame fused with a GFP-coding DNA fragment to its C-terminus and then cloned into an in-house expression vector containing the human CMV promoter and a puromycin resistant gene (PuroR) for selection. […] CHO cell colonies stably expressing high-level EGFP were isolated and subcloned.

[2] = biological target: T2, recombinantly expressed human TfR1 extracellular domain with a His tag (rTfR1-ECD, ACRO Biosystems) (human, UniProt P02786 89-760); assay: BLI (Octet QK), mAb captured on anti-mouse Fc (AMC) biosensors, rTfR1-ECD in solution
T2 construct: extracellular domain; Bought reagent; also called 6His-tagged rTfR1-ECD; extracellular domain of TfR1
T2 sequence (P02786 other isoform, or with tags, fused parts or gaps): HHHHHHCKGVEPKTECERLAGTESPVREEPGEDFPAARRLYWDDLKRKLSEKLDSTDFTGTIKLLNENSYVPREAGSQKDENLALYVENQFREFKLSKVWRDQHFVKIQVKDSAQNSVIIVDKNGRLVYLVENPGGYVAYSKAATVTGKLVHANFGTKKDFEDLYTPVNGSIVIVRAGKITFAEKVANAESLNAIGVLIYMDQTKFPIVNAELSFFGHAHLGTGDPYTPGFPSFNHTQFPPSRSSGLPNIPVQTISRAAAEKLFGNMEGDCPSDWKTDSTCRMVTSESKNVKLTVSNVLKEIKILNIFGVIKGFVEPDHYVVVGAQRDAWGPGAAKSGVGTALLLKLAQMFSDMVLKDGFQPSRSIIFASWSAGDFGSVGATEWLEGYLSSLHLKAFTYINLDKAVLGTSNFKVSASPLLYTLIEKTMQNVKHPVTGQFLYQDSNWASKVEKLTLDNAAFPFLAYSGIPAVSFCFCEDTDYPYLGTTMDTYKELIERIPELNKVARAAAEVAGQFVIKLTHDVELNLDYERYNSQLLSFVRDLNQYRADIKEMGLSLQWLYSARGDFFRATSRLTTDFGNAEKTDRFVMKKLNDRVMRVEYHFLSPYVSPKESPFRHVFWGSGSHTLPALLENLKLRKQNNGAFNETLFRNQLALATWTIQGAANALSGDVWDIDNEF

[3] = biological target: T2, recombinantly expressed human TfR1 …; assay: direct ELISA, plate coated with 0.1 µg/mL rTfR1-ECD, detection anti-mouse IgG Fc-HRP
Description: The plate was coated with 0.1 μg/mL of purified rTfR1-ECD containing a C-terminal 6×His tag. A mouse anti-6×His mAb and an isotype control Ab were used as positive and negative controls, respectively. All the primary antibodies were in 3-fold serial dilutions with a starting concentration of 3 μg/mL. Peroxidase AffiniPure Goat Anti-Mouse IgG Fey at 1:6,000 dilution was used for detection.
3,3′,5,5′-Tetramethylbenzidine (TMB) substrate was added and absorbance at 450 nm of wavelength was measured using a SpectraMax microplate reader (Molecular Device, San Jose, Calif.).

[4] = biological target: T2, recombinantly expressed human TfR1 …; assay: BLI (Octet QK), 10 nM mAb loaded on anti-mouse Fc sensors; same value printed in the rows 20, 8, 3.2 and 1.28 nM rTfR1-ECD; koff Error blank
[5] = biological target: T2, recombinantly expressed human TfR1 …; assay: BLI (Octet QK), 50 nM mAb loaded on anti-mouse Fc sensors; same value printed in the rows 20, 8, 3.2 and 1.28 nM rTfR1-ECD; koff Error blank
[6] = biological target: T2, recombinantly expressed human TfR1 …; assay: BLI (Octet QK), 10 nM mAb loaded on anti-mouse Fc sensors; same value printed in the rows 20, 8, 3.2 and 1.28 nM rTfR1-ECD; kon Error 2.12E+04, Full R^2 0.989
[7] = biological target: T2, recombinantly expressed human TfR1 …; assay: BLI (Octet QK), 50 nM mAb loaded on anti-mouse Fc sensors; same value printed in the rows 20, 8, 3.2 and 1.28 nM rTfR1-ECD; kon Error 9.80E+03, Full R^2 0.9909
[8] = biological target: T2, recombinantly expressed human TfR1 …; assay: BLI (Octet QK), cAb captured on anti-human Fc (AHC) biosensors, rTfR1-ECD 50 nM to 1.28 nM in solution
Description: (§1) Concentrations of rTfR1-ECD ranged from 50 nM to 1.28 nM by 2.5-fold serial dilutions.

[9] = biological target: T2, recombinantly expressed human TfR1 …; assay: BLI (Octet QK), 10 nM cAb loaded on anti-human Fc sensors; same value printed in the rows 50, 20, 8, 3.2 and 1.28 nM rTfR1-ECD; koff Error blank
Description: as §1

[10] = biological target: T2, recombinantly expressed human TfR1 …; assay: BLI (Octet QK), 50 nM cAb loaded on anti-human Fc sensors; same value printed in the rows 50, 20, 8, 3.2 and 1.28 nM rTfR1-ECD; koff Error blank
Description: as §1

[11] = biological target: T2, recombinantly expressed human TfR1 …; assay: BLI (Octet QK), 10 nM cAb loaded on anti-human Fc sensors; same value printed in the rows 50, 20, 8, 3.2 and 1.28 nM rTfR1-ECD; kon Error 5.18E+03, Full R^2 0.9885
Description: as §1

[12] = biological target: T2, recombinantly expressed human TfR1 …; assay: BLI (Octet QK), 50 nM cAb loaded on anti-human Fc sensors; same value printed in the rows 50, 20, 8, 3.2 and 1.28 nM rTfR1-ECD; kon Error 2.34E+03, Full R^2 0.9963
Description: as §1

| IC50 [1] | Kd [2] | EC50 (read off the curve) [3] | koff [4] | koff [5] | kon [6] | kon [7] | Kd [8] | koff [9] | koff [10] | kon [11] | kon [12] | Binder |
| --- | --- | --- | --- | --- | --- | --- | --- | --- | --- | --- | --- | --- |
| ~0.1 µg/mL |  |  |  |  |  |  |  |  |  |  |  | anti-human TfR1 control mAb (R&D Systems) (antibody, V domains shown) VH: QVQLQQSGPELVKPGASVKMSCKASGYTFTNYYIHWVKQRPGQGLEWIGWIYPGDGSTKYNEKFKGKTTLTADKSSSTAYMLLSSLTSEDSAIYFCARDGSSAPKFTYWGQGTLVTVSA VL: DIVMTQSPSSLTVTAGEKVTMRCKSSQSLLNSGNQKNYLTWYQQKPGQPPKLLIYWASTRESGVPDRFTGSGSGTDFTLTISSVQAEDLAVYYCQNDYSYPLTFGAGTKLELK |
| 0.03 µg/mL and 0.04 µg/mL | < 1 pM | ~0.04 µg/mL | < 1e-07 s⁻¹ | < 1e-07 s⁻¹ | 1.16e+06 M⁻¹ s⁻¹ | 604000 M⁻¹ s⁻¹ |  |  |  |  |  | MAb11-22.1 mAb (antibody, IgG1, V domains shown, Mouse hybridoma antibody, IgG1/kappa; both are kept under this molecule) VH: EVQLQQSGPELVKPGASVRISCKTSGYTFTNYYIHWMKQRPGQGLEWIGWIYPGDGNSHYNEKFKGKTTLTADKSSSTGYILLSSLTSEDSAVYFCTRDYDNYGGFAYWGQGTLVTVSA VL: IVMTQSPSSLTVTAGEKVTMSCKSSQSLLNSGNQKNYLTWYQQKPGQPPKLLIYWASTWESRVPDHFTGSGSGTDFTLTISSVQAEDLAVYYCQNDYSYPLTFGAGTKLELKR |
|  |  |  |  |  |  |  | < 1 pM | < 1e-07 s⁻¹ | < 1e-07 s⁻¹ | 244000 M⁻¹ s⁻¹ | 196000 M⁻¹ s⁻¹ | MAb11-22.1 chimeric Ab (cAb) (antibody, V domains shown, not shown: constant region of human IgG1 heavy chain (CH1-CH3); constant region of human kappa light chain (CL)) VH: EVQLQQSGPELVKPGASVRISCKTSGYTFTNYYIHWMKQRPGQGLEWIGWIYPGDGNSHYNEKFKGKTTLTADKSSSTGYILLSSLTSEDSAVYFCTRDYDNYGGFAYWGQGTLVTVSA VL: IVMTQSPSSLTVTAGEKVTMSCKSSQSLLNSGNQKNYLTWYQQKPGQPPKLLIYWASTWESRVPDHFTGSGSGTDFTLTISSVQAEDLAVYYCQNDYSYPLTFGAGTKLELKR |
